Experimental data: the RNAGym collection of RNA variant scans (doi:10.7554/elife.90254)

B1: OR4K15 (parent)
chain: GUUAACGGUCAUAGGCCAUGGAAACUAGGAGCACCAUUUCGCUGCCAGUGAAGAAAUGAACAAAGAAAAUCUGGGCCAGGCAGGCAUCAAAAGAAAUAGUCUUGCGCUCAACCAGAAAGUCUGUAAUCAUUUUAAGGGUA

Variants of: B1
Experiment: self-cleavage, relative activity (ratio to wild type); higher = more cleavage; in vitro, sequencing; the parent is a self-cleaving ribozyme

| Variant | self-cleavage |
| --- | --- |
| GUUAACGGUCAUAGGCCAUGGAAACUAGGAGCACCAUUUCGCUGCCAGUGAAGAAAUGAACAAAGAAAAUCUGGGCCAGGCAGGCAUCAAAAGAAAUAGUCUUGCGCCCAACCAGAAAGUCUGUAAUCAUUCUAAGGGUA [U108C U132C] | 0.01 |
| GUUAACGGUCAUAGGCCAUGGAAACUAGGAGCACCAUUUCGCUGCCAGUGAAGAAAUGAACAAAGAAAAUCUGGGCCAGGCAGGCAUCAAAAGAAAUAGUCUUGCGCCCAACCAGAAAGUCUGUAAUCAUUAUAAGGGUA [U108C U132A] | 0.02 |
| GUUAACGGUCAUAGGCCAUGGAAACUAGGAGCACCAUUUCGCUGCCAGUGAAGAAAUGAACAAAGAAAAUCUGGGCCAGGCAGGCAUCAAAAGAAAUAGUCUUGCGCCCAACCAGAAAGUCUGUAAUCAUUUUCAGGGUA [U108C A134C] | 0.01 |
| GUUAACGGUCAUAGGCCAUGGAAACUAGGAGCACCAUUUCGCUGCCAGUGAAGAAAUGAACAAAGAAAAUCUGGGCCAGGCAGGCAUCAAAAGAAAUAGUCUUGCGCACAACCAGAAAGUCUGUAAUCAUUUUAAGGGAA [U108A U139A] | 0.04 |
| GUUAACGGUCAUAGGCCAUGGAAACUAGGAGCACCAUUUCGCUGCCAGUGAAGAAAUGAACAAAGAAAAUCUGGGCCAGGCAGGCAUCAAAAGAAAUAGUCUUGCGCCCAACCAGAAAGUCUGUAAUCAAUUUAAGGGUA [U108C U130A] | 0 |
| GUUAACGGUCAUAGGCCAUGGAAACUAGGAGCACCAUUUCGCUGCCAGUGAAGAAAUGAACAAAGAAAAUCUGGGCCAGGCAGGCAUCAAAAGAAAUAGUCUUGCGCCCAACCAGAAAGUCUGUAAUCAUCUUAAGGGUA [U108C U131C] | 0.01 |
| GUUAACGGUCAUAGGCCAUGGAAACUAGGAGCACCAUUUCGCUGCCAGUGAAGAAAUGAACAAAGAAAAUCUGGGCCAGGCAGGCAUCAAAAGAAAUAGUCUUGCGCCCAACCAGAAAGUCUGUAAUCAUUUAAAGGGUA [U108C U133A] | 0.01 |
| GUUAACGGUCAUAGGCCAUGGAAACUAGGAGCACCAUUUCGCUGCCAGUGAAGAAAUGAACAAAGAAAAUCUGGGCCAGGCAGGCAUCAAAAGAAAUAGUCUUGCGCCCAACCAGAAAGUCUGUAAUCAUUUCAAGGGUA [U108C U133C] | 0.02 |
| GUUAACGGUCAUAGGCCAUGGAAACUAGGAGCACCAUUUCGCUGCCAGUGAAGAAAUGAACAAAGAAAAUCUGGGCCAGGCAGGCAUCAAAAGAAAUAGUCUUGCGCCCAACCAGAAAGUCGGUAAUCAUUUUAAGGGUA [U108C U122G] | 0 |
| GUUAACGGUCAUAGGCCAUGGAAACUAGGAGCACCAUUUCGCUGCCAGUGAAGAAAUGAACAAAGAAAAUCUGGGCCAGGCAGGCAUCAAAAGAAAUAGUCUUGCGCCCAACCAGAAAGUCCGUAAUCAUUUUAAGGGUA [U108C U122C] | 0.01 |
| GUUAACGGUCAUAGGCCAUGGAAACUAGGAGCACCAUUUCGCUGCCAGUGAAGAAAUGAACAAAGAAAAUCUGGGCCAGGCAGGCAUCAAAAGAAAUAGUCUUGCGCCCAACCAGAAAGUCAGUAAUCAUUUUAAGGGUA [U108C U122A] | 0.01 |
| GUUAACGGUCAUAGGCCAUGGAAACUAGGAGCACCAUUUCGCUGCCAGUGAAGAAAUGAACAAAGAAAAUCUGGGCCAGGCAGGCAUCAAAAGAAAUAGUCUUGCGCCCAACCAGAAAGUCUGUAAUCAUUUUAAGAGUA [U108C G137A] | 0.01 |
| GUUAACGGUCAUAGGCCAUGGAAACUAGGAGCACCAUUUCGCUGCCAGUGAAGAAAUGAACAAAGAAAAUCUGGGCCAGGCAGGCAUCAAAAGAAAUAGUCUUGCGCCCAACCAGAAAGUCUGUAAUUAUUUUAAGGGUA [U108C C128U] | 0.04 |
| GUUAACGGUCAUAGGCCAUGGAAACUAGGAGCACCAUUUCGCUGCCAGUGAAGAAAUGAACAAAGAAAAUCUGGGCCAGGCAGGCAUCAAAAGAAAUAGUCUUGCGCCCAAUCAGAAAGUCUGUAAUCAUUUUAAGGGUA [U108C C112U] | 0.01 |
| GUUAACGGUCAUAGGCCAUGGAAACUAGGAGCACCAUUUCGCUGCCAGUGAAGAAAUGAACAAAGAAAAUCUGGGCCAGGCAGGCAUCAAAAGAAAUAGUCUUGCGCCCAACCAGAAUGUCUGUAAUCAUUUUAAGGGUA [U108C A118U] | 0 |
| GUUAACGGUCAUAGGCCAUGGAAACUAGGAGCACCAUUUCGCUGCCAGUGAAGAAAUGAACAAAGAAAAUCUGGGCCAGGCAGGCAUCAAAAGAAAUAGUCUUGCGCCCAACCAGAAGGUCUGUAAUCAUUUUAAGGGUA [U108C A118G] | 0.01 |
| GUUAACGGUCAUAGGCCAUGGAAACUAGGAGCACCAUUUCGCUGCCAGUGAAGAAAUGAACAAAGAAAAUCUGGGCCAGGCAGGCAUCAAAAGAAAUAGUCUUGCGCGCAACCAGAAAGUCCGUAAUCAUUUUAAGGGUA [U108G U122C] | 0.02 |
| GUUAACGGUCAUAGGCCAUGGAAACUAGGAGCACCAUUUCGCUGCCAGUGAAGAAAUGAACAAAGAAAAUCUGGGCCAGGCAGGCAUCAAAAGAAAUAGUCUUGCGCCCAACCAGAAAGUCUGUAAUCAUUUUAAGGGAA [U108C U139A] | 0.04 |
| GUUAACGGUCAUAGGCCAUGGAAACUAGGAGCACCAUUUCGCUGCCAGUGAAGAAAUGAACAAAGAAAAUCUGGGCCAGGCAGGCAUCAAAAGAAAUAGUCUUGCGCGCAACCAGGAAGUCUGUAAUCAUUUUAAGGGUA [U108G A116G] | 0 |
| GUUAACGGUCAUAGGCCAUGGAAACUAGGAGCACCAUUUCGCUGCCAGUGAAGAAAUGAACAAAGAAAAUCUGGGCCAGGCAGGCAUCAAAAGAAAUAGUCUUGCGCACAACCAGAAAGUCUGUAAUCACUUUAAGGGUA [U108A U130C] | 0.01 |
| GUUAACGGUCAUAGGCCAUGGAAACUAGGAGCACCAUUUCGCUGCCAGUGAAGAAAUGAACAAAGAAAAUCUGGGCCAGGCAGGCAUCAAAAGAAAUAGUCUUGCGCCCAACCAGAAAGUCUGUAAUCAUUUUAAGGGUA [U108C] | 0.01 |

| Variant | self-cleavage |
| --- | --- |
| GUUAACGGUCAUAGGCCAUGGAAACUAGGAGCACCAUUUCGCUGCCAGUGAAGAAAUGAACAAAGAAAAUCUGGGCCAGGCAGGCAUCAAAAGAAAUAGUCUUGCGCGCAACCAGAAAGUCUGUAAUCAUUUUAAGGGUA [U108G] | 0.02 |
| GUUAACGGUCAUAGGCCAUGGAAACUAGGAGCACCAUUUCGCUGCCAGUGAAGAAAUGAACAAAGAAAAUCUGGGCCAGGCAGGCAUCAAAAGAAAUAGUCUUGCGCGCAACCAGAAAGUCUGUAGUCAUUUUAAGGGUA [U108G A126G] | 0 |
| GUUAACGGUCAUAGGCCAUGGAAACUAGGAGCACCAUUUCGCUGCCAGUGAAGAAAUGAACAAAGAAAAUCUGGGCCAGGCAGGCAUCAAAAGAAAUAGUCUUGCGCCCAACCAGAAAGUCUGAAAUCAUUUUAAGGGUA [U108C U124A] | 0.01 |
| GUUAACGGUCAUAGGCCAUGGAAACUAGGAGCACCAUUUCGCUGCCAGUGAAGAAAUGAACAAAGAAAAUCUGGGCCAGGCAGGCAUCAAAAGAAAUAGUCUUGCGCCCAACCAGAAAGUCUGCAAUCAUUUUAAGGGUA [U108C U124C] | 0 |
| GUUAACGGUCAUAGGCCAUGGAAACUAGGAGCACCAUUUCGCUGCCAGUGAAGAAAUGAACAAAGAAAAUCUGGGCCAGGCAGGCAUCAAAAGAAAUAGUCUUGCGCCCAACCAGAAAGUCUGUACUCAUUUUAAGGGUA [U108C A126C] | 0.01 |
| GUUAACGGUCAUAGGCCAUGGAAACUAGGAGCACCAUUUCGCUGCCAGUGAAGAAAUGAACAAAGAAAAUCUGGGCCAGGCAGGCAUCAAAAGAAAUAGUCUUGCGCACAACCAGAAAGUCCGUAAUCAUUUUAAGGGUA [U108A U122C] | 0.04 |
| GUUAACGGUCAUAGGCCAUGGAAACUAGGAGCACCAUUUCGCUGCCAGUGAAGAAAUGAACAAAGAAAAUCUGGGCCAGGCAGGCAUCAAAAGAAAUAGUCUUGCGCACAACCAGAAAGCCUGUAAUCAUUUUAAGGGUA [U108A U120C] | 0.01 |
| GUUAACGGUCAUAGGCCAUGGAAACUAGGAGCACCAUUUCGCUGCCAGUGAAGAAAUGAACAAAGAAAAUCUGGGCCAGGCAGGCAUCAAAAGAAAUAGUCUUGCGCACAACCAGAAAGACUGUAAUCAUUUUAAGGGUA [U108A U120A] | 0.02 |
| GUUAACGGUCAUAGGCCAUGGAAACUAGGAGCACCAUUUCGCUGCCAGUGAAGAAAUGAACAAAGAAAAUCUGGGCCAGGCAGGCAUCAAAAGAAAUAGUCUUGCGCCCAACCAGAAAGUCUGUAAUCAUUUUAGGGGUA [U108C A135G] | 0.01 |
| GUUAACGGUCAUAGGCCAUGGAAACUAGGAGCACCAUUUCGCUGCCAGUGAAGAAAUGAACAAAGAAAAUCUGGGCCAGGCAGGCAUCAAAAGAAAUAGUCUUGCGCACAACCAGAAAGUCUGUAACCAUUUUAAGGGUA [U108A U127C] | 0 |
| GUUAACGGUCAUAGGCCAUGGAAACUAGGAGCACCAUUUCGCUGCCAGUGAAGAAAUGAACAAAGAAAAUCUGGGCCAGGCAGGCAUCAAAAGAAAUAGUCUUGCGCGCAACCAGAAGGUCUGUAAUCAUUUUAAGGGUA [U108G A118G] | 0.01 |
| GUUAACGGUCAUAGGCCAUGGAAACUAGGAGCACCAUUUCGCUGCCAGUGAAGAAAUGAACAAAGAAAAUCUGGGCCAGGCAGGCAUCAAAAGAAAUAGUCUUGCGCCCAACCAGAAAGUUUGUAAUCAUUUUAAGGGUA [U108C C121U] | 0.02 |
| GUUAACGGUCAUAGGCCAUGGAAACUAGGAGCACCAUUUCGCUGCCAGUGAAGAAAUGAACAAAGAAAAUCUGGGCCAGGCAGGCAUCAAAAGAAAUAGUCUUGCGCACAACCAGAAAGUCUGUAAUCAUUCUAAGGGUA [U108A U132C] | 0.03 |
| GUUAACGGUCAUAGGCCAUGGAAACUAGGAGCACCAUUUCGCUGCCAGUGAAGAAAUGAACAAAGAAAAUCUGGGCCAGGCAGGCAUCAAAAGAAAUAGUCUUGCGCACAACCAGAAAGUCUGUAAUCAUUAUAAGGGUA [U108A U132A] | 0.01 |
| GUUAACGGUCAUAGGCCAUGGAAACUAGGAGCACCAUUUCGCUGCCAGUGAAGAAAUGAACAAAGAAAAUCUGGGCCAGGCAGGCAUCAAAAGAAAUAGUCUUGCGCCCCACCAGAAAGUCUGUAAUCAUUUUAAGGGUA [U108C A110C] | 0 |
| GUUAACGGUCAUAGGCCAUGGAAACUAGGAGCACCAUUUCGCUGCCAGUGAAGAAAUGAACAAAGAAAAUCUGGGCCAGGCAGGCAUCAAAAGAAAUAGUCUUGCGCCCGACCAGAAAGUCUGUAAUCAUUUUAAGGGUA [U108C A110G] | 0.01 |
| GUUAACGGUCAUAGGCCAUGGAAACUAGGAGCACCAUUUCGCUGCCAGUGAAGAAAUGAACAAAGAAAAUCUGGGCCAGGCAGGCAUCAAAAGAAAUAGUCUUGCGCCCAACCAGAAAGUCUGUUAUCAUUUUAAGGGUA [U108C A125U] | 0.01 |
| GUUAACGGUCAUAGGCCAUGGAAACUAGGAGCACCAUUUCGCUGCCAGUGAAGAAAUGAACAAAGAAAAUCUGGGCCAGGCAGGCAUCAAAAGAAAUAGUCUUGCGCCUAACCAGAAAGUCUGUAAUCAUUUUAAGGGUA [U108C C109U] | 0.01 |
| GUUAACGGUCAUAGGCCAUGGAAACUAGGAGCACCAUUUCGCUGCCAGUGAAGAAAUGAACAAAGAAAAUCUGGGCCAGGCAGGCAUCAAAAGAAAUAGUCUUGCGCCCAACCAGAAAGUCUGUAAUCGUUUUAAGGGUA [U108C A129G] | 0.01 |
| GUUAACGGUCAUAGGCCAUGGAAACUAGGAGCACCAUUUCGCUGCCAGUGAAGAAAUGAACAAAGAAAAUCUGGGCCAGGCAGGCAUCAAAAGAAAUAGUCUUGCGCCCAACCAGAUAGUCUGUAAUCAUUUUAAGGGUA [U108C A117U] | 0.01 |
